B1: HHH_rd1_0493 (parent)
chain: RDEDEKEKIKEALKRGNEDKAKEIAKRANVSPEEYERLRKEAE

Variants of: B1
Assay: folding stability dG (cDNA display proteolysis); higher = more stable
Conditions: PBS, room temperature

Folding stability dG [kcal/mol] of substitutions, site by site:
A28: M 2.64, Y 3.02, Q 2.23, N 2.9, K 1.82, E 1.96, F 2.91, T 2.25, C 2.78, L 3.25, S 2.51, P 0.576, H 2.83, I 2.98, G 2.32, V 2.32, D 1.36, R 1.84, W 2.25
E34: A 1.69, H 0.903, D 2.42, I 1.79, T 1.51, V 1.81, S 1.14, F 0.766, Q 1.68, M 1.72, R -0.261, C 1.85, W 1.1, Y 0.926, N 0.916, L 1.56, K -0.215, G 1.06
E33: V 2.22, L 2.27, T 2.33, C 2.29, N 2.07, R 1.99, K 2.04, Q 2.58, D 2.64, F 1.96, A 2.69, Y 1.92, W 2.06, G 2.25, M 2.33, I 2.19, H 2.03, P 1.57, S 2.43
R39: M 2.1, N 1.18, T 1.89, D 0.392, W 2.02, Y 1.87, I 2.09, P 0.097, H 1.8, K 2.99, C 1.52, F 1.95, S 2.1, Q 2.2, L 2.17, E 1.77, A 2.37, G 1.16, V 2.65
V30: I 3.41, C 1.69, H 0.486, E 0.435, P 0.301, D 0.32, T 1.84, F 2.3, G 0.389, M 2.89, R 0.486, S 0.63, N 0.389, Y 1.84, K 0.917, Q 0.766, W 1.73, L 3.09, A 0.849
R37: I 2.44, F 2.15, L 2.42, T 2.22, A 2.51, H 2.12, Q 2.63, M 2.49, D 2.02, S 2.27, W 2.16, K 2.68, N 2.35, V 2.24, G 1.77, P -0.529, E 2.4, Y 2.05
L38: K 0.318, T 0.593, R 0.571, P -0.019, V 1.23, A 0.829, S 0.378, D 0.129, W 1.78, M 2.26, F 1.58, N 0.332, Y 1.85, E 0.322, H 0.352, Q 0.492, C 1.29, I 2.76, G 0.162
A42: Q 1.88, N 1.81, F 2.29, S 2.37, M 2.51, L 2.54, H 1.55, P 0.795, Y 2.14, G 1.62, E 1.25, I 2.87, D 0.965, W 2.2, T 2.31, V 3.33, K 1.03, R 1.21
N29: R 2.55, E 2.29, F 2.29, W 1.51, G 3.3, I 1.23, A 2.34, C 1.83, Y 1.9, H 2.67, S 2.42, V 1.41, K 2.74, T 1.58, D 2.39, M 2.51, P 0.97, L 2.22, Q 2.62
S31: D 2.6, G 2.94, F 1.4, I 1.44, Y 1.3, P 2.65, H 1.95, A 2.45, R 1.87, K 2.07, T 3.03, E 2.17, V 1.66, Q 2.19, C 1.74, W 1.27, M 2.11, N 2.39, L 2.21
P32: Q 2.8, F 2.76, L 2.83, M 2.79, Y 2.7, D 3.02, W 2.92, K 2.65, N 2.63, H 2.7, A 3.03, G 2.37, T 2.61, R 2.73, S 2.67, V 2.74, C 2.07, I 2.77, E 2.85
E41: L 2.63, R 2.07, K 1.99, Y 1.63, H 1.7, V 2.15, P 0.8, A 2.55, M 2.58, F 1.84, I 2.38, G 1.59, T 1.97, S 2.05, N 1.77, C 1.88, Q 2.77, D 2.35, W 2.38
E36: M 2.24, L 2.24, W 1.68, T 1.7, H 1.75, Y 1.52, K 1.49, Q 2.11, I 1.88, S 1.75, P 0.261, G 1.13, F 1.6, N 2.19, R 1.67, D 2.7, C 2.86, A 2.31, V 1.5
K40: G 2.62, R 3.33, F 2.8, D 2.63, I 3.16, S 2.9, H 3.01, Y 2.89, P 0.577, A 3.15, Q 3.26, W 3.23, T 2.8, L 3.21, E 2.98, V 3.01, N 2.72, M 3.2
K26: E 2.83, L 3.05, Y 2.35, N 2.64, H 2.74, F 2.47, Q 2.99, A 3.03, W 2.01, S 2.75, D 2.71, T 2.79, M 2.91, R 3.1, I 2.91, G 2.31, V 2.73, P 0.553
A25: I 0.742, V 1.37, P 0.533, L 0.818, Q 2.15, W -0.051, R 1.16, S 1.74, Y 0.541, M 1.88, K 0.845, N 0.52, T 1.01
E43: D 2.56, F 3.37, C 2.61, A 2.94
Y35: Q 0.44, I 1.39, A 0.298, C 0.708, N -0.057, T 0.361, M 2.29, W 2.58, K 0.009, R 0.281, E 0.245, D 0.022, S 0.291, G -0.05, V 1.59, F 3.53, H 0.142, L 2.26
R27: D 2.26, M 2.61, E 2.71, F 2.01, V 2.42, H 2.61, N 2.83, C 2, K 2.93, T 2.51, S 2.68, P 0.689, W 2, L 2.82, I 2.65, Q 2.83, Y 2.21, G 2.36, A 3.04

Source: the MegaScale stability set (Tsuboyama et al. 2023)
